Legend:
[1] = target: T1, MIS12 complex with Nsl1 truncated at the C terminus (Nsl1 1–264; residues 265–281 deleted) (Homo sapiens, UniProt Q9H081 1-205; Q6P1K2 1-205; Q9H410 1-356; Q96IY1 1-264); experiment: SEC; MIS12C or MIS12C^Nsl1ΔC mixed with Knl1 2131–2337 or its mutants at 4 µM each; 20 mM HEPES pH 7.8, 150 mM NaCl, 0.5 mM TCEP; Superose 6; fractions on SDS-PAGE; details: both partners purified
T1 construct: Mis12, subunit of human MIS12C; Pmf1, subunit of human MIS12C; Dsn1, subunit of human MIS12C; Nsl1, subunit of human MIS12C, residues 1-264; also called MIS12C^Nsl1ΔC; Nsl^1–264; source: High-5 insect cells (baculovirus), purified (Strep-Tactin, Resource S, Superdex 200); copies: + + +
T1 sequence (looked up) 1: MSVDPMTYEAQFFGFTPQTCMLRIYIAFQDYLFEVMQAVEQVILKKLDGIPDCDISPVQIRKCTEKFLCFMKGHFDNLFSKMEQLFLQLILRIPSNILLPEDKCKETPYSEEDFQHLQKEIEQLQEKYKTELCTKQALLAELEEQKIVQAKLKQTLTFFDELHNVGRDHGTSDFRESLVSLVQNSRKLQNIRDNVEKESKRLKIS
T1 sequence (looked up) 2: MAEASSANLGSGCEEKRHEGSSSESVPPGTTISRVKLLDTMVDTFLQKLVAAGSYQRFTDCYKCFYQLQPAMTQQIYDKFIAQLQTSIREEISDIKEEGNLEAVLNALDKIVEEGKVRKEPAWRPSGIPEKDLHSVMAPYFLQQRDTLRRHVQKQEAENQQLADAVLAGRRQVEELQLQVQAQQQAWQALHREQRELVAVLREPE
T1 sequence (looked up) 3: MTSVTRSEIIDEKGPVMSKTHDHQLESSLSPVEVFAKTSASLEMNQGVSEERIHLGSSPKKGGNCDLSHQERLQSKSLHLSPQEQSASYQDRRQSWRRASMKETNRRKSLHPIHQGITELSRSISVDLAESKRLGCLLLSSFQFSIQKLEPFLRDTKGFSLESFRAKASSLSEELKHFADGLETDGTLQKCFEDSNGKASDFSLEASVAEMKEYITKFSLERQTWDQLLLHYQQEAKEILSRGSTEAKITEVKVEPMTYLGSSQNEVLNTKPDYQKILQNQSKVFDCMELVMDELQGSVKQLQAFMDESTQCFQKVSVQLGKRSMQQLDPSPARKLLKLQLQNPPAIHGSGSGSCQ
T1 sequence (looked up) 4: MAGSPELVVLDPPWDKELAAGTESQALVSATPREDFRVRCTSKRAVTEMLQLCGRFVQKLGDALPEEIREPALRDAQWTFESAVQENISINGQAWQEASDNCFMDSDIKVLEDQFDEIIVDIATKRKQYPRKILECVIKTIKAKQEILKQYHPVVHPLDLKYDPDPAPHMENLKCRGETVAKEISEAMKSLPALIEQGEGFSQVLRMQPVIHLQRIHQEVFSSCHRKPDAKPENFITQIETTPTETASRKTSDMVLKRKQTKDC

[2] = target: T2, MIS12 complex (Mis12, Pmf1, Dsn1, Nsl1), wild type, full length (Homo sapiens, UniProt Q9H081 1-205; Q6P1K2 1-205; Q9H410 1-356; Q96IY1 1-281); experiment: as above; details: both partners purified
T2 construct: Mis12, subunit of human MIS12C; Pmf1, subunit of human MIS12C; Dsn1, subunit of human MIS12C; Nsl1, subunit of human MIS12C; The DS tag on Pmf1 is TEV cleavable; a cleavage is not described; also called MIS12C (WT); wild-type MIS12C; source: High-5 insect cells (baculovirus), purified (Strep-Tactin, Resource S, Superdex 200); copies: + + +
T2 sequence (looked up) 1: T1 sequence (looked up) 1
T2 sequence (looked up) 2: T1 sequence (looked up) 2
T2 sequence (looked up) 3: T1 sequence (looked up) 3
T2 sequence (looked up) 4: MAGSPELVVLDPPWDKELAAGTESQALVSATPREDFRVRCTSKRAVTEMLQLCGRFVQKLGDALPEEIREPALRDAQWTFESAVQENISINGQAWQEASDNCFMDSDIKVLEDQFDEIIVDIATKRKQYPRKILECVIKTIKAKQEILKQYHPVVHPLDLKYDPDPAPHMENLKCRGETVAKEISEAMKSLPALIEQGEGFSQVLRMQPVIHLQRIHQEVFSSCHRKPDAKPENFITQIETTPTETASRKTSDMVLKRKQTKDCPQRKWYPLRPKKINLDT

[3] = target: T2, MIS12 complex (Mis12, Pmf1, Dsn1, …); experiment: cryo-EM structure; NDC80C, MIS12C and KNL1C mixed 1:1:1 and run on Superose 6 in 20 mM HEPES pH 8.0, 80 mM NaCl, 1 mM MgCl2, 1 mM TCEP; about 1 mg/ml on UltrAuFoil grids; 3.0 Å (MIS12C heads 3.8 Å); details: both partners purified
[4] = target: T3, MIS12 complex with Dsn1 residues 6–113 deleted (Homo sapiens, UniProt Q9H081 1-205; Q6P1K2 1-205; Q9H410 1-356; Q96IY1 1-281, 6–113 residues deleted); experiment: ITC; peptide in the syringe titrated into the MIS12C variant in the cell; 20 °C; 20 mM HEPES pH 7.5, 100 mM NaCl, 1 mM TCEP; single-site binding model; duplicate or triplicate; details: both partners purified
T3 construct: Mis12, subunit of human MIS12C; Pmf1, subunit of human MIS12C; Nsl1, subunit of human MIS12C; also called MIS12C^Dsn1ΔN; MIS12C^ΔN-Dsn1; source: High-5 insect cells (baculovirus), purified (Strep-Tactin, Resource S, Superdex 200); copies: + + +
T3 sequence (looked up) 1: T1 sequence (looked up) 1
T3 sequence (looked up) 2: T1 sequence (looked up) 2
T3 sequence (looked up) 3: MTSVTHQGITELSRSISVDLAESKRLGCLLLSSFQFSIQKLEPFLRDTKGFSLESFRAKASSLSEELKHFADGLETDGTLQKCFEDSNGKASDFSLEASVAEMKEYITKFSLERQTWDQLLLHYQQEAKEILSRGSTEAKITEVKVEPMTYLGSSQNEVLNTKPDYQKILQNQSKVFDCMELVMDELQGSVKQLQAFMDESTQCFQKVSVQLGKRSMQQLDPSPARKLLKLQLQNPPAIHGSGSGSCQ
T3 sequence (looked up) 4: T2 sequence (looked up) 4

[5] = target: T2, MIS12 complex (Mis12, Pmf1, Dsn1, …); experiment: as above; details: both partners purified
[6] = target: MIS12 complex with Dsn1 residues 6–113 deleted (Homo sapiens, UniProt Q9H081 1-205; Q6P1K2 1-205; Q9H410 1-356; Q96IY1 1-281, 6–113 residues deleted); experiment: ITC
[7] = target: T4, MIS12 complex (Mis12, Pmf1, Dsn1, Nsl1), wild type, full length (Homo sapiens, UniProt Q9H081 1-205; Q6P1K2 1-205; Q9H410 1-356; Q96IY1 1-281); experiment: ITC
T4 chain 1: T1 sequence (looked up) 1
T4 chain 2: T1 sequence (looked up) 2
T4 chain 3: T1 sequence (looked up) 3
T4 chain 4: T2 sequence (looked up) 4

[8] = target: T5, Mis12 (Homo sapiens, UniProt Q9H081 1-205); experiment: cryo-EM structure; NDC80C, MIS12C and KNL1C mixed 1:1:1 and run on Superose 6 in 20 mM HEPES pH 8.0, 80 mM NaCl, 1 mM MgCl2, 1 mM TCEP; about 1 mg/ml on UltrAuFoil grids; 3.0 Å (MIS12C heads 3.8 Å); details: both partners purified
T5 construct: Mis12, subunit of human MIS12C; Subunit within the KMN network cryo-EM sample; source: High-5 insect cells, expressed and purified as part of MIS12C
T5 sequence (looked up): T1 sequence (looked up) 1

[9] = target: T6, Dsn1 (Homo sapiens, UniProt Q9H410 1-356); experiment: as above; details: both partners purified
T6 construct: Dsn1, subunit of human MIS12C; Subunit within the KMN network cryo-EM sample; residues N-terminal to Arg92 are disordered; source: High-5 insect cells, expressed and purified as part of MIS12C
T6 sequence (looked up): T1 sequence (looked up) 3

[10] = target: T7, Knl1 residues 1870–2342 (human, UniProt Q8NG31 1870-2342); experiment: as above; details: both partners purified
T7 construct: Knl1, human, 2,342-residue protein, residues 1870-2342; coordinates traced R2097–H2342; Subunit within the KMN network cryo-EM sample; also called extended version of the Knl1 C terminus; source: High-5 insect cells, expressed and purified as part of KNL1C
T7 sequence (looked up): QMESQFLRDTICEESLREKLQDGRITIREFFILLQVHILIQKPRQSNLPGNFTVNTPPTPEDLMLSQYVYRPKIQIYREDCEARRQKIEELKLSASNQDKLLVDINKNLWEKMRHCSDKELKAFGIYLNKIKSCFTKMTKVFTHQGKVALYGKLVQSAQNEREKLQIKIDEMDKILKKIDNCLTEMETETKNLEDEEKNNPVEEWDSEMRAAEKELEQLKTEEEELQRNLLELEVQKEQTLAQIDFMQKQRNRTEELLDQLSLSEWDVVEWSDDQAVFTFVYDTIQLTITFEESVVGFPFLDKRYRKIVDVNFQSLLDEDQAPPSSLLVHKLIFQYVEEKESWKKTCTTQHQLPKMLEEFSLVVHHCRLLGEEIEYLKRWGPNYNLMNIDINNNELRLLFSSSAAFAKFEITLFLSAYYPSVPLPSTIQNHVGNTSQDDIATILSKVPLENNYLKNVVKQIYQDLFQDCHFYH

B1: Knl1 RWD domains, residues 2131–2337, wild type (domain or fragment, H. sapiens, UniProt Q8NG31 2131-2337, looked up)
chain: SLSEWDVVEWSDDQAVFTFVYDTIQLTITFEESVVGFPFLDKRYRKIVDVNFQSLLDEDQAPPSSLLVHKLIFQYVEEKESWKKTCTTQHQLPKMLEEFSLVVHHCRLLGEEIEYLKRWGPNYNLMNIDINNNELRLLFSSSAAFAKFEITLFLSAYYPSVPLPSTIQNHVGNTSQDDIATILSKVPLENNYLKNVVKQIYQDLFQD
notes: Knl1, human, residues 2131-2337 (tandem RWD domains); also called Knl1^2131–2337; wild-type KNL1; source: E. coli BL21 (DE3), purified (Ni-NTA, reverse IMAC, Superdex 75); not shown: His6, N-terminal, cleaved
**Q.** What does the source list for B1?
**A.** binding result [1]: binds; binding result [2]: binds

B2: KNL1 complex (Knl1 residues 1870–2342 with ZWINT) (complex, human)
chain 1: T7 sequence (looked up)
chain 2: MEAAETEAEAAALEVLAEVAGILEPVGLQEEAELPAKILVEFVVDSQKKDKLLCSQLQVADFLQNILAQEDTAKGLDPLASEDTSRQKAIAAKEQWKELKATYREHVEAIKIGLTKALTQMEEAQRKRTQLREAFEQLQAKKQMAMEKRRAVQNQWQLQQEKHLQHLAEVSAEVRERKTGTQQELDRVFQKLGNLKQQAEQERDKLQRYQTFLQLLYTLQGKLLFPEAEAEAENLPDDKPQQPTRPQEQSTGDTMGRDPGVSFKAVGLQPAGDVNLP
notes: Knl1, human, 2,342-residue protein, residues 1870-2342; ZWINT, human, constitutive partner of Knl1; Amplified from cDNA; also called Knl1–ZWINT; source: High-5 insect cells (baculovirus), purified (His-tag column, Resource Q)
**Q.** Does B2 bind [3]?
**A.** binds

B3: Dsn1^92–113 auto-inhibitory peptide, wild type (peptide)
peptide: Ac-RRQSWRRASMKETNRRKSLHPIAW-NH2
notes: Ala-Trp added for determination of concentration by absorption at 280 nm; source: synthetic peptide (Cambridge Research Biochemicals)
**Q.** Which “fold increase in binding against wild-type MIS12C” value [4] does the source give for B3 here?
**A.** 44 fold

**Q.** Does B3 bind [5]?
**A.** binds

**Q.** What about the Kd [6] of the same binder?
**A.** 4.89 µM

**Q.** And the Kd [7]?
**A.** 214 µM

B4: Pmf1 (natural protein, Homo sapiens, UniProt Q6P1K2 1-205, looked up)
chain: T1 sequence (looked up) 2
notes: Pmf1, subunit of human MIS12C; Subunit within the KMN network cryo-EM sample; source: High-5 insect cells, expressed and purified as part of MIS12C
**Q.** What does the source list for B4?
**A.** binding result [8]: binds; binding result [9]: binds; binding result [10]: binds

Source: PMC11189301, “Structure of the human outer kinetochore KMN network complex” (Nature Structural & Molecular Biology, 2024)
